Assay results as given in US20160199524A1, “RADIOSENSITIVITY OF FLUOROPHORES AND USE OF RADIOPROTECTIVE AGENTS FOR DUAL-MODALITY IMAGING” (Immunomedics, Inc., priority 2015, published 2016).
Read-outs that look alike come from different tables or passages of the source. *1 amine or outer side, *2 acyl side, *3 side chain or, on linkers, in order; H or OH if unused. Where a SMILES comes first, the peptide text is derived from it. Side-chain parts run from the residue outwards. [ ]: non-standard residue; d: D form. The star is where a group is joined. HSG = histamine succinyl glycyl group, O=C(CCC(=O)NCC(=O)*)NCCc1c[nH]cn1; DOTA = O=C(O)CN1CCN(CC(=O)O)CCN(CC(=O)*)CCN(CC(=O)O)CC1; NH(2-(imidazol-4-yl)ethyl) = c1ncc(CCN*)[nH]1; Suc = O=C(CCC(=O)[*:2])[*:1]

Key:
[1] = Effect of heating on fluorescence of 800CW; assay type: physicochemical; details: NaAc 0.1 M pH 4.5, 1 h at 95° C.
Protocol: To investigate the effect of heating on the fluorescence of 800CW, 5 μg/mL solutions of the dye in NaAc (0.1 M, pH 4.5) were placed in a heating block at 95° C. for 5, 15, 30, or 60 min. Following, samples were cooled down to room temperature, measured in the plate reader, and the fluorescence of each sample was normalized to a non-heated control.

[2] = IRDye800CW irradiations (radiobleaching); assay type: physicochemical
Protocol: To assess the radiosensitivity of 800CW, 5 μg/mL aqueous solution of the dye in 0.1 M NaAc buffer pH 4.5 was prepared and mixed with increasing activities of ^68Ga, ^111In, and ^213Bi (1-20 MBq) for a 310 μL final volume. Radioactive solutions were incubated in 1.5 mL Eppendorf tubes at 4° C. in the dark, and 100 μL aliquots taken at 0.5, 6, and 24 h time points for fluorescence measurement. The effect of volume on 800CW's radiosensitivity was determined by incubating 150, 300, 550,800, or 1050 μL of 5 μg/mL buffered dye solution with 20 MBq of ^68Ga. All fluorescence readings were normalized to non-irradiated controls.

[3] = Radioprotection of 800CW with radical scavengers; assay type: physicochemical; details: for radioprotection of 800CW: 20 MBq of ^68Ga, 0.5, 3 and 6 h exposure
Protocol: The radioprotective effect of three common hydroxyl radical scavengers, ethanol, gentisic acid (GA) and ascorbic acid (AA) was tested. […]

[4] = Stability of Al^18F(IMP467) in human serum or PBS; assay type: in vitro ADME
Protocol: An aliquot of the HLB purified peptide (˜30 μL) was diluted with 200 μL human serum (previously frozen) and placed in the 37° C. HPLC sample chamber. Aliquots were removed at various time points and analyzed by HPLC.
Optimized conditions for ^18F-labeling of IMP467 were identified. These consisted of eluting ^18F^− with commercial sterile saline (pH 5-7), mixing with 20 nmol of AlCl3 and 40 nmol IMP467 in pH 4 acetate buffer in a total volume of 100 μL, heating to 102° C. for 15 min, and performing SPE separation. High-yield (85%) and high specific activity (115 GBq/μmol) were obtained with IMP467 in a single step, 30-min procedure after a simple solid-phase extraction (SPE) separation without the need for HPLC purification. Al^18F(IMP467) was stable in PBS or human serum, with 2% loss of ^18F after incubation in either medium for 6 h at 37° C.

[5] = Stability of ^18F-labeled IMP449 in human serum at 37° C.
Protocol: Three microliters of a 2 mM solution of Al in a pH 4 acetate buffer was mixed with 15 μL, 1.3 mCi of ^18F. […] […] […] Another aliquot was removed after 1 hr and analyzed by HPLC.

[6] = system: nude mice bearing LS174T human colonic xenografts; assay: Biodistribution of ^18F-labeled agents with or without TF2 pretargeting; details: not pretargeted
From the text: Six-week-old NCr nu-m female nude mice were implanted s.c. with the human colonic cancer cell line, LS174T (ATCC, Manassas, Va.).
Tissues were weighed and counted together with a standard dilution prepared from each of the respective products. Due to the short physical half-life of ^18F, standards were interjected between each group of tissues from each animal. Uptake in the tissues is expressed as the counts per gram divided by the total injected activity to derive the percent-injected dose per gram (% ID/g).

[7] = PET/CT images, region of interest ratios; assay type: in vivo, mice; details: male, BALB/c nude, mouse, iv, total radioactivity, mice with LS174T tumor and inflamed muscle, ^68Ga(IMP288) after TF2
Protocol: (§1) PET images were acquired with an Inveon animal PET/CT scanner (Siemens Preclinical Solutions, Knoxville, Tenn.). PET emission scans were acquired for 15 minutes, preceded by CT scans for anatomical reference (spatial resolution 113 μm, 80 kV, 500 μA, exposure time 300 msec).
(§2) Uptake in the tumor was evaluated quantitatively by drawing regions of interest (ROI), using a 50% threshold of maximum intensity. A region in the abdomen was used as background region.

[8] = system: nude BALB/c mice with s.c. LS174T tumors; assay: PET/CT images, region of interest ratios; assay type: in vivo
Protocol: as §1, §2

CEA = molecular target: T1, CEA (Homo sapiens, UniProt P06731); assay: Immunoreactivity with excess CEA by SE-HPLC; assay type: binding; details: 0.74-GBq run
T1 sequence (P06731 35-676): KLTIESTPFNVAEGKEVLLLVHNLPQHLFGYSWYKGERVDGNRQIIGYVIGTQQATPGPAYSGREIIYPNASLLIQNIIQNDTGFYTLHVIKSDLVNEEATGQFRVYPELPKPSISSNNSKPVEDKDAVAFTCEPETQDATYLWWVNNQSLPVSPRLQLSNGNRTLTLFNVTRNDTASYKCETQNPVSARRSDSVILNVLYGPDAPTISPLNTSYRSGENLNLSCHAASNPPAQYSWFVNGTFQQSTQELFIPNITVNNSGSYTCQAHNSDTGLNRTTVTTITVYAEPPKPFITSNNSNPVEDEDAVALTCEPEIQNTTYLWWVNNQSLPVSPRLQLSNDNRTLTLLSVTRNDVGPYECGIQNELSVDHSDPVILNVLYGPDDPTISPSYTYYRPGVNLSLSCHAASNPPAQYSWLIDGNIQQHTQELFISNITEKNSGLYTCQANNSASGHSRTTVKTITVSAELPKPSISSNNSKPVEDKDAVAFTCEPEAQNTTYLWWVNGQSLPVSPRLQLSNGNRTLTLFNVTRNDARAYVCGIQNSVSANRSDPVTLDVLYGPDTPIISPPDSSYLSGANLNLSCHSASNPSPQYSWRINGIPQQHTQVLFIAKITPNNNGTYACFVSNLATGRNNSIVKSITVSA
Protocol: Immunoreactivity of the purified product was analyzed by adding an excess of CEA and separating on SE-HPLC, comparing to a profile of the product alone. The product was also analyzed by RP-HPLC to assess percent-unbound Al^18F(NOTA-MPAEM).

[9] = system: nude mice bearing Capan-1 human pancreatic cancer xenografts; details: mouse, in vivo
Protocol: (§3) Nude mice were inoculated subcutaneously with CaPan-1 human pancreatic adenocarcinoma (ATCC Accession No. HTB-79, Manassas, Va.). When tumors were visible, the animals were injected intravenously with 100 μL of the radiolabeled Fab′. […] The animals were necropsied at 3 h post injection, tissues and tumors removed, weighed, and counted by gamma scintillation, together with standards prepared from the injected products. The data are expressed as percent injected dose per gram.

[10] = system: nude mice bearing Capan-1 human pancreatic cancer xenografts; assay: Biodistribution of radiolabeled Fab′; details: 3 h after injection
Protocol: as §3

[11] = molecular target: somatostatin receptors on AR42J cells (rat); assay: apparent IC50; competition with ^111In(DTPA-octreotide) on AR42J cells, 3 h at RT
[12] = Stability of ^18F-labeled IMP272 in PBS (reverse phase HPLC); assay type: physicochemical; details: incubated at room temperature with PBS for ~1 hr
Protocol: ^18F-Labeling of IMP272—A 3 μL aliquot of the aluminum stock solution was placed in a REACTI-VIAL™ and mixed with 50 μL ^18F (as received) and 3 μL of the IMP272 solution. […] The remainder of the peptide solution was incubated at room temperature with 150 μL PBS for ˜1 hr and then examined by reverse phase HPLC.

somatostatin receptors on AR42J cells (rat), sequence (P30680 whole entry): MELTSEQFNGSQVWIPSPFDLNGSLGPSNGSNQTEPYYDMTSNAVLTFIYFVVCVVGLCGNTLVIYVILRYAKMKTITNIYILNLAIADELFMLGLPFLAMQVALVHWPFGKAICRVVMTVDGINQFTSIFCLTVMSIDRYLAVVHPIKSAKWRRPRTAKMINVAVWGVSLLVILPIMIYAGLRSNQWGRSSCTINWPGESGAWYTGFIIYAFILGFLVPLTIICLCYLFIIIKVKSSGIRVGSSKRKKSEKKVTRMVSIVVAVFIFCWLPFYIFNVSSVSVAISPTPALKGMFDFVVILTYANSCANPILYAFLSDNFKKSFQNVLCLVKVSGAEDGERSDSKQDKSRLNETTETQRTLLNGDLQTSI

CC1(C)C(/C=C/C2=C(Oc3ccc(S(=O)(=O)O)cc3)C(=C/C=C3/N(CCCCS(=O)(=O)O)c4ccc(S(=O)(=O)[O-])cc4C3(C)C)/CCC2)=[N+](CCCCCC(=O)O)c2ccc(S(=O)(=O)O)cc21 [800CW]
fluorescent intensity, % of the initial values [1]: 60%
change of 800CW fluorescence on exposure to ^68Ga ([2]; 0.1 M NaAc pH 4.5, 30 min exposure, increasing activities): pronounced dose-dependent decrease
extent of radiobleaching by the three radionuclides, trend ([2]; similar activity level and exposure times): ^68Ga>^111In>^213Bi

O=C1O[C@H]([C@@H](O)CO)C(O)=C1O [AA, ascorbic acid]
radioprotection against ^111In and ^213Bi induced radiobleaching of 800CW ([3]; 0.1% (w/v) AA): effective radioprotection
concentrations that completely preserve 800CW fluorescence ([3]; 20 MBq of ^68Ga, longer radiation exposure): 0.001-10 % (w/v)

NC(=O)[C@@H](CCCCNC(=O)CNC(=O)CCC(=O)NCCc1c[nH]cn1)NC(=O)[C@@H](Cc1ccc(O)cc1)NC(=O)[C@@H](CCCCNC(=O)CNC(=O)CCC(=O)NCCc1c[nH]cn1)NC(=O)CCC(=O)Nc1ccc(CC(CN2CCN(CC(=O)O)CCN(CC(=O)O)CC2)N(CC(=O)O)CC(=O)O)cc1 (stereo partly drawn) [Al^18F(IMP467)]
loss of ^18F ([4]; incubation in PBS or human serum for 6 h at 37° C.): 2%

CCO [EtOH, ethanol]
radioprotection of 800CW [3]: both concentration and exposure time dependent

O=C(O)c1cc(O)ccc1O [GA, gentisic acid]
radioprotection of 800CW [3]: both concentration and exposure time dependent

C[C@@H](NC(=S)Nc1ccc(CC2CN(CC(=O)O)CCN(CC(=O)O)CCN2CC(=O)O)cc1)C(=O)N[C@H](CCCCNC(=O)CNC(=O)CCC(=O)NCCc1c[nH]cn1)C(=O)N[C@H](Cc1ccc(O)cc1)C(=O)N[C@H](CCCCNC(=O)CNC(=O)CCC(=O)NCCc1c[nH]cn1)C(N)=O (stereo partly drawn) [IMP449, NOTA-benzyl-ITC-D-Ala-D-Lys(HSG)-D-Tyr-D-Lys(HSG)-NH2]
stability in human serum [5]: 76%
stability in human serum ([5]; purified, 37° C., at least one hour): 91%

[18FH] [^18F, reference compound]
tumor/blood ratio [6]: 6.7±2.7

NC(=O)[C@@H](CCCCNC(=O)CNC(=O)CCC(=O)NCCc1c[nH]cn1)NC(=O)[C@@H](CCC(=O)O)NC(=O)[C@@H](CCCCNC(=O)CNC(=O)CCC(=O)NCCc1c[nH]cn1)NC(=O)[C@@H](Cc1ccc(O)cc1)NC(=O)CN1CCN(CC(=O)O)CCN(CC(=O)O)CCN(CC(=O)O)CC1 [^68Ga(IMP288), metal not drawn] ({DOTA}-[dY][dK]([Gly-Suc-NH(2-(imidazol-4-yl)ethyl)])[dE][dK]([Gly-Suc-NH(2-(imidazol-4-yl)ethyl)])-NH2)
tissue to tissue ratio at 1 h ([7]; read-out: inflamed muscle-to-background ratio in PET/CT image): 8.9
tissue to tissue ratio at 1 h ([7]; read-out: tumor-to-background ratio in PET/CT image): 48
tumor-to-background ratio in PET image ([8]; TF2 and ^68Ga(IMP288), 1 h, ROI 50% threshold, abdomen as background): 38.2
tumor-to-inflamed tissue ratio in PET/CT image ([8]; mice with LS174T tumor and inflamed muscle, ^68Ga(IMP288) after TF2): 5.4

Al^18F(NOTA-MPAES)-hMN-14 Fab′: Al^18F(NOTA-MPAEM) conjugated to Fab′ of humanized MN-14 anti-CEACAM5 IgG (labetuzumab)
shift of activity on SE-HPLC when excess CEA was added (CEA): all of the activity shifted
T/NT Liver [9]: 0.2 ± 0.04
T/NT Lung [9]: 0.8 ± 0.5
T/NT Muscle [9]: 6.7 ± 1.3
T/NT Scapula [9]: 1.8 ± 0.4
T/NT Sm. Int. [9]: 1.3 ± 0.1
T/NT Spleen [9]: 0.3 ± 0.04
T/NT Stomach [9]: 4.7 ± 1.2
% ID/g Blood [10]: 0.5 ± 0.1 % ID/g
% ID/g Capan-1 tumor [10]: 2.8 ± 0.3 % ID/g
% ID/g Kidney [10]: 216 ± 30.9 % ID/g
% ID/g Lg. Int. [10]: 1.1 ± 0.4 % ID/g
% ID/g Liver [10]: 17.5 ± 3.8 % ID/g
% ID/g Lung [10]: 4.2 ± 1.6 % ID/g
% ID/g Muscle [10]: 0.4 ± 0.1 % ID/g
% ID/g Scapula [10]: 1.6 ± 0.4 % ID/g
% ID/g Sm. Int. [10]: 2.2 ± 0.2 % ID/g
% ID/g Spleen [10]: 11.3 ± 1.6 % ID/g
% ID/g Stomach [10]: 0.6 ± 0.1 % ID/g
T/NT Blood (tumor/blood ratio) [10]: 5.9 ± 1.3
T/NT Kidney [10]: 0.0 ± 0.0
T/NT Lg. Int. [10]: 2.8 ± 0.7
% ID/g Capan-1 tumor ([10]; listed as [Al^18F]-Fab′): 2.8±0.3 % ID/g
T/NT Blood (tumor/blood ratio) ([10]; listed as [Al^18F]-Fab′): 5.9±1.3

Al^19F(IMP466) (peptide)
IC50 [11]: 3.6 nM

C-NETA-succinyl-D-Lys(HSG)-D-Tyr-D-Lys(HSG)-NH2 ({C‑NETA-Suc}-[dK](HSG)-[dY]-[dK](HSG)-NH2) [IMP467]
breakdown of ^18F-labeled peptide in serum ([4]; human serum, 37° C., five hour incubation): no detectable breakdown

DTPA-Gln-Ala-Lys(HSG)-D-Tyr-Lys(HSG)-NH2 [IMP272]
^18F still attached to the peptide [12]: 42%
^18F unbound [12]: 58%

^69Ga(IMP466) (peptide)
IC50 [11]: 13 nM

^115In(DTPA-octreotide) (peptide)
IC50 [11]: 6.3 nM
